Substrate in the series: CC(C)C[C@H](N)C(=O)O
Kind of series: pyrophosphate release assay of A-domain adenylation. The note with it: holo C-A-T-R module. Type of series: biochemical, Aspergillus terreus.

This is an account of results in PMC3064727.

As usually defined, the Km is the concentration of substrate that gives half-maximal velocity. In general, kcat refers to the number of substrate molecules converted per active site and unit of time at saturation.

B1: NRPS325 (Aspergillus terreus NIH2624) (protein)
chain: PTVERHVESQEPVVEAAVVASSSDSSSEGTMTPPSSRGINTPHTEITNLQLESVKSKACTAVQRREKMSFSQNRLWFPSAYLEQETPFNCTTSYTLTGPLDTARLENAFQRLIQRHESFRTAFYTDEVSGAAMQRVLASSPFQLRTMLGNKDDMQRVFRQIANYHFDLSVADTLVATLISHGPKDHTIVFGYHHIIMDGVSWQITLNDLARFYESDNPELPQLSQYIEFSVKQRQLVSSGAHDAKLSYWRKEFPSAPPLLPLFPFAKVGARKALTRYDTLDYIYDVDVSLVSKIKKASLAAKTTTFHFYLAAFVVLLNRFLEIDDVCLGIIDANRSDKTFLNTVGFLLDMLPLRLKVNKKERFVHTLRNTRAKAYNALEHSGVPLETILKELQVPTSATNTPLFQVLMNYRMGALRAPQMGDAKMNFLDYEDAKAPFDLAISIDEKDDGTGMLTFSMQDYMYDWEGAELLVKTYVHLLDTLATDSSQRINEVSLFDESLVNQSMVAGTGPVTGLDWAGTETISQRVDAMTAQRPDGVAVKDLNGKARTYAETQARVYALASSLQQAGITSGARVAVYCEPTVDTVALVLAIYRVGAAYIPLDVRNSHERLADVVRECKPTLILYHGATKHTLVDVAGDGQDALDIDTVPQSAAPIPDVSKLSDPAVILYTSGSTGKPKGIMLTHANLSLQFASISSALDLTDRDVVLQQSALGFDASLSQMFMALTNGGTLIHGSNRGDPVDLAALIEREGVTLTLIMISEMSALLQYGSDILSRCQSWRIALCGGEAFTVNLLRKFRDLNLPNLELYNAYGPTEASIMSSLGKVAYRRTDWGDGSVVPVGPPLPNYGVYVLDENFQPCPLGWPGELCICGPGVAEGYVGLPELTSSKFQPDQLRKPQGPSYDGWVRVYRTGDKARLLQDGSFVFLGRMDGDSQVKLRGIRIELNDISNSIVKTSKEAIVDAATIVKGTTSQTLVSFVVFAPAKVVDLERSNSSASAYLRQVIQSLPLPVYMRPAIAVPLERLPFTERGKLDTKALAAIPIQEDEETVNEELSETEQKLKQVWQDILSEQGMSLEIRRQSDFFSVGGNSLMLMRVRAKMLEVFGVSVPLAELFQASTLETLASRLDGNKTAESDNIVWNEETALDVSLPPAIAHPRDHPEKDLSVILTGSTGFLGRAIVRQLIADPRISTIHCLAVRPGRTLPEELVGSSKVIVYTGDLAAKRLGLSAPQAQEIFSSAAAIIHNGAEVSHMKSYHSLRPTNVDSTRQLVELALRSSIDSAVRTPAFHYVSTAGVGHLLGIPAFPEQSVSSSPPPVDGSDGYVAAKWASERILEQASERLGLPVFIHRPSNITGPDVGDRDIIHNVWRWSEVLRAVPDLVAAGAKGAFDFVGVETCAKGITDTLFVQASAGHLAYIHQSGENVIPVEEFGECLQRNGGADVELVPFDQWVDKAVQAGLDDLVASFLRGTKGAFQMPFLPKGLRQ
As to B1, the Km came to 310.0 ± 15.5 µM and the catalytic constant (kcat) was 0.287 ± 0.04 s⁻¹.
